Assay results from patent US20220242939A1 (BIOARCTIC, published 2022).
Changes are numbered by the printed parent chain. Non-standard residues stand in square brackets, D forms with d. No end group written: not given here. Ahx = NCCCCCC(=O)O

How the values were obtained:
[1] = target: T1, 7B10, recombinant IgG2c antibody; assay: inhibition ELISA: antigen in solution varied, antibody 7B10 at 0.05 µg/ml, plate coated with G200-BSA peptide
T1 construct: also called 7610
Description: (§1) The pre-incubated samples were transferred (50 μl/well) to the blocked ELISA plates, and plates were incubated for 25 min at room temperature without shaking. Plates were washed as described above. Alkaline phosphatase conjugated anti-mouse IgG detection antibody (Mabtech, cat. no. 3310-4) was diluted 1:1000 and added to each plate (50 μl/well). The plate was sealed and incubated with shaking (900 rpm) for 45 min at room temperature and subsequently washed as described above. Alkaline phosphatase substrate (50 μl/well) was added to the plate and the optical density was read every 15 min at a wavelength of 405 nm for up to 120 min. The IC50 values were determined from a log inhibitor concentration response curve (FIG. 17).

[2] = target: 23D5, recombinant IgG2c antibody; assay: inhibition ELISA: antigen in solution varied, antibody 23D5 at 0.05 µg/ml, plate coated with G200-BSA peptide
Chain of 23D5, recombinant IgG2c antibody (VH, as listed by the source): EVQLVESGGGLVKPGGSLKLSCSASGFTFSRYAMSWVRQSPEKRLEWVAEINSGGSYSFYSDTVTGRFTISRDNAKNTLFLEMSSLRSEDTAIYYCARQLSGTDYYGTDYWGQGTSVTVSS
Description: as §1

[3] = target: 7C7, recombinant IgG2c antibody; assay: inhibition ELISA: antigen in solution varied, antibody 7C7 at 0.05 µg/ml, plate coated with G200-BSA peptide
Chain of 7C7, recombinant IgG2c antibody (VH, as listed by the source, chain 1 of 2): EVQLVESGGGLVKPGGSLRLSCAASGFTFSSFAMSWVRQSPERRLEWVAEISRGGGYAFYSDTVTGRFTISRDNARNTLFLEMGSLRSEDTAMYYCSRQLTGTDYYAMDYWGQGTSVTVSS
Chain of 7C7, recombinant IgG2c antibody (VL, as listed by the source, chain 2 of 2): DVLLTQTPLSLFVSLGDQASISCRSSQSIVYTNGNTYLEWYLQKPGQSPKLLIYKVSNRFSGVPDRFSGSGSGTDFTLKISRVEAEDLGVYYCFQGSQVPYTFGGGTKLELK
Description: as §1

[4] = target: 28F2, recombinant IgG2c antibody; assay: inhibition ELISA: antigen in solution varied, antibody 28F2 at 0.05 µg/ml, plate coated with G200-BSA peptide
Chain of 28F2, recombinant IgG2c antibody (VH, as listed by the source): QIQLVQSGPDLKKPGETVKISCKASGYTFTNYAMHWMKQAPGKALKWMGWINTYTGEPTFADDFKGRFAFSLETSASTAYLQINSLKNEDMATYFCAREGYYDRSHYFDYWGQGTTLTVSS
Description: […] of each synthetic ApoE peptide, recombinant C-terminal ApoE fragment G200-HIS and full-length ApoE4 were prepared by 4-fold dilution starting from 1000 ng/ml in 96 well storage plates (30 μl final volume). Each recombinant antibody to be tested was added (30 μl) to the serial dilutions of each of the synthetic ApoE peptides, G200-HIS or full-length ApoE4 at a final concentration of 0.05 μg/ml per well. Samples were pre-incubated for 45 min at room temperature with shaking (900 rpm).
as §1

[5] = target: 17G4, recombinant IgG2c antibody; assay: inhibition ELISA: antigen in solution varied, antibody 17G4 at 0.05 µg/ml, plate coated with G200-BSA peptide
Chain of 17G4, recombinant IgG2c antibody (VH, as listed by the source): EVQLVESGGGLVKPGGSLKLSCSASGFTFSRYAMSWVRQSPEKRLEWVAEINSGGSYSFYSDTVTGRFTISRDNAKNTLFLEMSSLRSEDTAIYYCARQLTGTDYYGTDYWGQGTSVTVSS
Description: as §1

[6] = target: T2, recombinant C-terminal ApoE fragment A199-HIS (ApoE-A199-H299-10xHIS) (human, UniProt P02649 217-317); assay: SPR (Biacore 8K), A199-HIS amine-coupled on CM5, antibody as analyte, bivalent analyte fit (kd1)
T2 construct: also called A199-HIS fragment

[7] = target: T2, recombinant C-terminal ApoE fragment …; assay: SPR (Biacore 8K), A199-HIS amine-coupled on CM5, antibody as analyte, bivalent analyte fit (KD1)
[8] = target: T3, recombinant full-length ApoE4 (aa 1-299; SEQ ID NO:45; Abcam cat. no. ab50243) (human, UniProt P02649 19-317); assay: direct ELISA; proteins coated at 0.1 uM, BSA peptides at 1 ug/ml; antibody in 3-fold dilutions from 3000 ng/ml; blank reduced OD 450 nm
T3 construct: Bought protein; also called recombinant ApoE4 full-length protein
T3 sequence (P02649 19-317 C130R limits assumed): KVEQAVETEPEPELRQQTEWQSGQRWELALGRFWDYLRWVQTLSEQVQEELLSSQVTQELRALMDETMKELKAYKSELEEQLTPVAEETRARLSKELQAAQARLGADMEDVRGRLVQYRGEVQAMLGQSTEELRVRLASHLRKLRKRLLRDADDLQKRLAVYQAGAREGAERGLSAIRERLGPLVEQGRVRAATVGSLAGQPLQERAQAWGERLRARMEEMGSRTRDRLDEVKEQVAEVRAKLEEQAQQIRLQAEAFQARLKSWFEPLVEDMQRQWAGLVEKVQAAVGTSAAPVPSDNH
Description: (§2) Selectivity evaluation of purified monoclonal antibodies by direct ELISA: The direct ELISA described below was used to evaluate the binding selectivity of the purified monoclonal antibodies produced in Example 17.
(§3) The screening was performed according to standard ELISA protocols. Briefly, 1 μg/ml solutions of BSA-conjugated neo-epitope peptides and negative control peptide, and 0.1 μM recombinant C-terminal ApoE fragment and full-length ApoE (Abcam, cat. no. ab50243) were prepared by dilution in PBS. 50 μl/well were added to an ELISA half-area 96 well microtiter plate, and the plate was sealed with adhesive sealer and incubated over night at 4° C. After discarding the solution, the plates were blocked with 150 μl/well of protein-free blocking solution (Pierce) for 1 h at room temperature with shake (600-900 rpm). The plates were washed four times with washing buffer containing 0.28 mM NaH₂PO₄, 2.5 mM Na₂HPO₄, 150 mM NaCl, 0.1% TWEEN®-20 and 0.0075% Kathon CG. Purified monoclonal antibodies of interest were 3-fold serially diluted with a starting dilution at 3 μg/ml (mixed 1:2 with dilution buffer (PBS with 0.1% BSA and 0.05% TWEEN®-20)). An anti-ApoE C-terminal antibody was used as a reference antibody (ApoE E-8 mouse monoclonal, Santa Cruz Biotechnology, cat. no. sc-393302). 50 μl/well were added into the ELISA plates and incubated for 2 h at room temperature with shake (600-900 rpm). The plates were washed four times as described previously. […] After another wash (as described previously), 50 μl/well of K-Blue® aqueous substrate (Neogen) were added, and the reaction was stopped after 5-15 min with 50 μl/well of 0.5 M H₂SO₄. The optical density at 450 nm was read using an ELISA reader (Tecan).

[9] = target: T4, L198 N-terminal neo-epitope peptide LAGQPL-Acp-C (SEQ ID NO:52) conjugated to BSA (human, not fully specified (residue 8); printed as LAGQPL-Acp-C; also: C-terminal Cys conjugated to BSA carrier); assay: as above
T4 construct: BSA carrier; also called L198-BSA peptide
T4 peptide: LAGQPL[Ahx]C
Description: as §2, §3

[10] = target: T2, recombinant C-terminal ApoE fragment …; assay: direct ELISA, A199-HIS coated at 0.1 µM
Description: as §2, §3

[11] = target: T5, A199 N-terminal neo-epitope peptide AGQPLQE-Acp-C (SEQ ID NO:55) conjugated to BSA (human, not fully specified (residue 9); printed as AGQPLQE-Acp-C; also: C-terminal Cys conjugated to BSA carrier); assay: direct ELISA after limiting dilution
T5 construct: BSA carrier
T5 peptide: AGQPLQE[Ahx]C

[12] = target: T6, full-length ApoE in human brain extract from Alzheimer's disease patients (human, UniProt P02649 19-317); assay: Western blot of AD brain RIPA 2% SDS extract; anti-A199 antibody at 2 ug/ml as primary antibody
T6 construct: mature; Endogenous protein on Western blot or in solution (IP); also called ApoE full-length protein
T6 sequence (P02649 19-317): as the sequence (P02649 19-317 C130R limits assumed) above, with R112C counted along it
Description: RIPA 2% SDS brain extract containing approximately 60 μg total protein was mixed with 2×Laemmli sample buffer, boiled for 5 min at 95° C. and loaded onto SDS-PAGE gels (Bolt™ 12% Bis-Tris Plus 10 well, Thermo Fisher, cat. no. NW00120BOX). Gels were run for 30-40 min at 180 V, after which proteins were transferred from the gels onto nitrocellulose membranes using the Trans-Blot® Turbo™ system (Bio-Rad). […] Membranes were washed and incubated for 1 h at room temperature with the detection antibody anti-mouse-800CW (LI-COR, cat. no. 925-32210) diluted 1:25000 in Intercept® PBS Blocking Buffer (LI-COR) with 0.1% TWEEN®-20. Membranes were washed and images acquired using Odyssey® FC (LI-COR).

[13] = target: T2, recombinant C-terminal ApoE fragment …; assay: SPR (Biacore 8K), A199-HIS amine-coupled on CM5, antibody as analyte, bivalent analyte fit (ka1)
[14] = target: T7, A199 N-terminal neo-epitope peptide AGQPLQ-Acp-C (SEQ ID NO:51) conjugated to BSA (human, not fully specified (residue 8); printed as AGQPLQ-Acp-C; also: C-terminal Cys conjugated to BSA carrier); assay: direct ELISA, A199-BSA peptide coated at 1 µg/ml
T7 construct: BSA carrier; also called A199-BSA peptide
T7 peptide: AGQPLQ[Ahx]C
Description: as §2, §3

T1 sequence (VH, as listed by the source): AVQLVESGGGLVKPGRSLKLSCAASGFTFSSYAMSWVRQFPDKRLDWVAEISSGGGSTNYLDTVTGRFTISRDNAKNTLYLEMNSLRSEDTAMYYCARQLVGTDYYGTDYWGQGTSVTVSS

B1: recombinant C-terminal ApoE fragment G200-HIS (ApoE-G200-H299-10xHIS) (other)
chain: GQPLQERAQAWGERLRARMEEMGSRTRDRLDEVKEQVAEVRAKLEEQAQQIRLQAEAFQARLKSWFEPLVEDMQRQWAGLVEKVQAAVGTSAAPVPSDNHHHHHHHHHHH
notes: also called G200-HIS fragment
IC50 [1]: 2.8 nM
IC50 [2]: 2.4 nM
IC50 [3]: 2.8 nM
IC50 [4]: 2.4 nM
IC50 [5]: 3 nM

B2: 63F6, monoclonal anti-A199 antibody (antibody, IgG2b, V domains shown)
VH: QVQLQQPGTELVKPGASVKLSCKASGYTFTNYWMHWVKQRPGQGLEWIGNINPRNGGTNYNEKFKSKATLTVDKSSSTDYMQLSSLTSEDSAVYYCARGLYDYDFDYWGQGTTLTVSS
VL: DVLMTQTPLSLPVSLGDQASISCRSSQSIVHGNGNTYLQWFLQKPGQSPKLLIYKVSSRFSGVPDRFSGSGSGTDFTLKISRVEAEDLGVYYCFQGSHVPFTFGSGTKLEIK
koff [6]: 0.0207 s⁻¹
Kd [7]: 137 nM
binding result [8]: no binding (tested: 3000 ng/ml)
binding result [9]: no binding (tested: 3000 ng/ml)
EC50 [10]: 1.8 ng/mL
binding result [11]: binds
binding result [12]: no binding (tested: 2 ug/ml (text))
kon [13]: 150000 M⁻¹ s⁻¹
EC50 [14]: 3.8 ng/mL

B3: 67G3, monoclonal anti-A199 antibody (antibody, IgG2b, V domains shown)
VH: B2 VH with N31R, M34L, R54T, T58A, S66N, D79A, A97S, L100A, F105C
VL: B2 VL with S28R, G32S, T36I, F41Y, S58N, F101Y, S105G
koff [6]: 0.0172 s⁻¹
Kd [7]: 83 nM
binding result [8]: no binding (tested: 3000 ng/ml)
EC50 [10]: 3.5 ng/mL
binding result [11]: binds
binding result [12]: no binding (tested: 2 ug/ml (text))
kon [13]: 180000 M⁻¹ s⁻¹
EC50 [14]: 4.4 ng/mL
